# Experimental data from publication PMC9065369 (Cell Reports, 2022).
# Target: Mono ubiquitin (UniProt P0CG48 1-76)
# Assay: ITC
binder,measurement,value
hsHDAC6 (1108-1215) (domain or fragment) TPLPWCPHLVAVCPIPAAGLDVTQPCGDCGTIQENWVCLSCYQVYCGRYINGHMLQHHGNSGHPLVLSYIDLSAWCYYCQAYVHHQALLDVKNIAHQNKFGEDMPHPH,Kd,5.16 ± 0.47 µM
